Source: patent US20220174981A1, “PROLINE TOLERANT TRIPEPTIDYL PEPTIDASES AND USES THEREOF” (DuPont Nutrition Biosciences APS, priority 2014, published 2022)

Legend:
[1] = test system: azocasein; test: Azocasein assay for endoprotease activity; type: biochemical; conditions: PepN applied in WPI hydrolysis
Procedure: (§1) A modified version of the endoprotease assay described by Iversen and Jørgensen, 1995 (Biotechnology Techniques 9, 573-576) is used. An enzyme sample of 50 μl is added to 250 μl of azocasein (0.25% w/v; from Sigma) in 4 times diluted McIlvaine buffer, pH 5 and incubated for 15 min at 40° C. with shaking (800 rpm). The reaction is terminated by adding 50 μl of 2 M trichloroacetic acid (TCA) (from Sigma Aldrich, Denmark) and centrifugation for 5 min at 20,000 g. To a 195 μl sample of the supernatant 65 μl of 1 M NaOH is added and absorbance at 450 nm is measured. One unit of endoprotease activity is defined as the amount which yields an increase in absorbance of 0.1 in 15 min at 40° C. at 450 nm.
as §1, with “Jorgensen,” for “Jørgensen,”, “1995” for “1995 (Biotechnology Techniques 9, 573-576)”, “TCA” for “trichloroacetic acid (TCA) (from Sigma Aldrich, Denmark)”, “C.” for “C. at 450 nm.”
Endopeptidase side-activity was measured with the azocasein as described in Example 2.

[2] = test system: sodium caseinate; test: 5% sodium caseinate hydrolysis with endopeptidase, TRI083 and PepN, serine equivalents; type: biochemical; conditions: doubling of the PepN activity from 786 to 1572 nkat/mL
[3] = test system: H-Ala-Ala-Ala-OH; test: Pre-hydrolysis of H-Ala-Ala-Ala-OH by PepN, gas chromatography; type: biochemical; conditions: 24 h, 40° C., pH 4.0
Procedure: The inhibition experiments were set up as described in Example 14. Furthermore, 1 mg/mL H-Ala-Ala-Ala-OH (Bachem, Switzerland) was subjected to general aminopeptidase (PepN) hydrolysis for 24 h at 40° C. in 12.5 times diluted McIlvaine buffer (pH 4.0). For this, […] H-Ala-Ala-Ala-OH was dissolved in 8 mL 10 times diluted McIlvaine buffer (pH 4.0) and filled up to 10 mL with purified PepN (1,572 nkat/mL [pH 6.5]). After 24 h of hydrolysis, the PepN hydrolysis was terminated by heat inactivation of the PepN (90° C.; 10 min). The degree of pre-hydrolysis of H-Ala-Ala-Ala-OH was determined by gas chromatography (Husek, 1991; FEBS-Letters 280, 354-356). About 0.18 mg/mL alanine was measured, which corresponds to about 54% hydrolyses of the initially applied H-Ala-Ala-Ala-OH.

[4] = test system: whey protein isolate (WPI); test: 15% WPI hydrolysis at pH 6, 50° C. with endopeptidases, TRI079 and PepN; type: biochemical; conditions: 24 h
Procedure: For WPI hydrolysis, Lacprodan-9224 (Arla Food Ingredients, Denmark) was employed, a 15% (w/w) WPI suspension was prepared in H2Od and adjusted to pH 6 with sodium hydroxide. To prevent microbial growth, 0.0285% (w/w) NaN3 was added. Subsequently, 0.5% (w/w on protein substrate) Food Pro® Alkaline Protease and 0.5% (w/w on protein substrate) Food Pro® PNL was added and a volume of 200 μl of the WPI suspension was transferred into each of the 96 wells of a microtiter plate (MTP; VWR, Denmark). Following this, 5 μl of the proline tolerant tripeptidyl peptidase TRI079 containing either 0 or 2188 nkat/mL and 5 ul of PepN (described in EXAMPLE 10) containing either 0, 197 or 393 nkat/mL were added to the particular wells of the MTP. Then, the MTP was sealed and placed in an incubator at 50° C. (iEMS incubator/shaker HT, Thermo Scientific, Denmark).
After 24 h of incubation and shaking at 400 rpm, the hydrolysis was stopped by addition of 20 μl of 2 M trichloroacetic acid (TCA; Sigma-Aldrich, Denmark), except for the reference (0 h) to which the TCA was added prior to endo- and exopeptidase addition. […] The measured absorptions at 340 nm in a MTP reader (VersaMax, Molecular Devices, Denmark) were transformed into serine equivalents employing a serine calibration curve (0-2 mM).

[5] = target: T1, H-Ala-Pro-pNA (Lactobacillus helveticus, UniProt Q10730); test: X-prolyl-dipeptidyl (PepX) side-activity; type: biochemical; conditions: PepN applied in WPI hydrolysis
T1 construct: His-tag; made in house; host or cells: E. coli
T1 sequence (Q10730 1-844 F39I/L44F/S342A/S372G/S496N/T525I/H527L): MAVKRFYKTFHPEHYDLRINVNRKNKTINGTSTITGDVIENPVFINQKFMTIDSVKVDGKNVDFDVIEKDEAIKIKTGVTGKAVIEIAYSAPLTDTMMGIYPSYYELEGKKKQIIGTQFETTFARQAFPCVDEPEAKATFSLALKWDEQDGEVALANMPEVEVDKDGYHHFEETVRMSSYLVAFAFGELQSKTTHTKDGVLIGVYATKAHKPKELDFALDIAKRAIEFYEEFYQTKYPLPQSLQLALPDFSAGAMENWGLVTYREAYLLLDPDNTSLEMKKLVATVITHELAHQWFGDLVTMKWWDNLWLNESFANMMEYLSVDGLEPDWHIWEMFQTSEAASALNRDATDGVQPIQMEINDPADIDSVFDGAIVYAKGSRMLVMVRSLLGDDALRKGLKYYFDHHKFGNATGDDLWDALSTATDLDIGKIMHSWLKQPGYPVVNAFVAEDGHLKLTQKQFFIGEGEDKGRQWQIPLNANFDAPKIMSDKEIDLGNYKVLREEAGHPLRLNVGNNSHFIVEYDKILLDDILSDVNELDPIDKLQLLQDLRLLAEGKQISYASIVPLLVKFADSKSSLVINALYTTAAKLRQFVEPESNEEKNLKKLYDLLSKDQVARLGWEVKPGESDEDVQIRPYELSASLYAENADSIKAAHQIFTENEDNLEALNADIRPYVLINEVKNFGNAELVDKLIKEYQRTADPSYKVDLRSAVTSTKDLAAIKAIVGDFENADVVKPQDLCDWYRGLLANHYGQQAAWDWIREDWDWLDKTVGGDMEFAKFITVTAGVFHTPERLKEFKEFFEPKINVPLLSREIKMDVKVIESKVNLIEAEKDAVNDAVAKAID

[6] = general aminopeptidase (Pep N) of the named origin; cited from earlier work

B1: PepN: recombinantly in E. coli expressed and His-tag purified general aminopeptidase (PepN) from Lactobacillus helveticus ATCC 12046 (protein, UniProt Q10730 1-844, looked up)
Aminopeptidase N: MAVKRFYKTFHPEHYDLRINVNRKNKTINGTSTITGDVFENPVLINQKFMTIDSVKVDGKNVDFDVIEKDEAIKIKTGVTGKAVIEIAYSAPLTDTMMGIYPSYYELEGKKKQIIGTQFETTFARQAFPCVDEPEAKATFSLALKWDEQDGEVALANMPEVEVDKDGYHHFEETVRMSSYLVAFAFGELQSKTTHTKDGVLIGVYATKAHKPKELDFALDIAKRAIEFYEEFYQTKYPLPQSLQLALPDFSAGAMENWGLVTYREAYLLLDPDNTSLEMKKLVATVITHELAHQWFGDLVTMKWWDNLWLNESFANMMEYLSVDGLEPDWHIWEMFQTSEASSALNRDATDGVQPIQMEINDPADIDSVFDSAIVYAKGSRMLVMVRSLLGDDALRKGLKYYFDHHKFGNATGDDLWDALSTATDLDIGKIMHSWLKQPGYPVVNAFVAEDGHLKLTQKQFFIGEGEDKGRQWQIPLNANFDAPKIMSDKEIDLGSYKVLREEAGHPLRLNVGNNSHFIVEYDKTLHDDILSDVNELDPIDKLQLLQDLRLLAEGKQISYASIVPLLVKFADSKSSLVINALYTTAAKLRQFVEPESNEEKNLKKLYDLLSKDQVARLGWEVKPGESDEDVQIRPYELSASLYAENADSIKAAHQIFTENEDNLEALNADIRPYVLINEVKNFGNAELVDKLIKEYQRTADPSYKVDLRSAVTSTKDLAAIKAIVGDFENADVVKPQDLCDWYRGLLANHYGQQAAWDWIREDWDWLDKTVGGDMEFAKFITVTAGVFHTPERLKEFKEFFEPKINVPLLSREIKMDVKVIESKVNLIEAEKDAVNDAVAKAID
modifications: His-tag
endopeptidase side-activity [1]: free of endopeptidase | increase of serine equivalents [2]: 10 mM | alanine measured ([3]; 1 mg/mL H-Ala-Ala-Ala-OH): About 0.18 mg/mL | hydrolyses of the initially applied H-Ala-Ala-Ala-OH [3]: about 54% | DH (in %) of WPI hydrolysate ([4]; PepN 197, TRI 079 0 nkat/mL): 18.2% | DH (in %) of WPI hydrolysate ([4]; PepN 393, TRI 079 0 nkat/mL): 18.8% | X-prolyl-dipeptidyl (PepX) side-activity [5]: free of | Substrate Specificity [6]: Ala, Lys, Arg, Leu, Phe, Val, Ile, and Pro | pH-optimum [6]: 6.5 | temp.-range [6]: 10-50 C.
